In test [1] the target is BPTI_A16S, displayed on yeast (bovine).
The target in test [2] is BPTI_K15A, displayed on yeast (bovine).
Test [3] concerns the target BPTI_K15R, displayed on yeast (bovine).

With Bovine trypsin (enzyme), the figures for the ΔΔG bind against BPTIWT in test [1], in test [2] and in test [3] were 4.5 kcal/mol, 11.1 kcal/mol and -1.4 kcal/mol, respectively.

Values taken from publication doi:10.1101/2020.10.14.338756.
